In PMC4562812 one finds stoichiometry N data, which are given here for 1 substance.

The experiment has as its target full-length recombinant H7 hemagglutinin (rH7) of A/Anhui/1/2013 (H7N9) virus (influenza A virus A/Anhui/1/2013 (H7N9)). Nature of the experiment: SEC. A general note: Size exclusion chromatography separates by hydrodynamic size, large species first.

By stoichiometry N is commonly meant a count of units in the complex or per binding partner. Regarding “full-length recombinant H7 hemagglutinin (rH7) of A/Anhui/1/2013 (H7N9) virus (natural protein)”, the stoichiometry N was 3.
